Measurements taken from patent publication US20210269542A1 (POTENZA THERAPEUTICS, published 2021).
Residue numbers refer to the chain shown, from its start. Names and notes keep the numbering of the source. Where two headings read alike, the source gives them in different places. Each block holds one binder with its values, some of them ahead of it.

Assays:
[1] = target: T1, human GITR expressed on cells (human, UniProt Q9Y5U5 26-241); experiment: cell-based or functional assay
T1 sequence: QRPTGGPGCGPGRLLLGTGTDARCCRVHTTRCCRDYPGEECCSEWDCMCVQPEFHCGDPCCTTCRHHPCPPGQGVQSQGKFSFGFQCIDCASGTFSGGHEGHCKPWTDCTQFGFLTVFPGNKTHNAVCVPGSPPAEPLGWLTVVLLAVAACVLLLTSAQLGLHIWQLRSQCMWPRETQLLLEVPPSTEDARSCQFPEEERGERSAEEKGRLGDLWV

[2] = target: T2, cynomolgus monkey GITR expressed on HT1080 cells (cynomolgus monkey); experiment: cell-based or functional assay
T2 chain: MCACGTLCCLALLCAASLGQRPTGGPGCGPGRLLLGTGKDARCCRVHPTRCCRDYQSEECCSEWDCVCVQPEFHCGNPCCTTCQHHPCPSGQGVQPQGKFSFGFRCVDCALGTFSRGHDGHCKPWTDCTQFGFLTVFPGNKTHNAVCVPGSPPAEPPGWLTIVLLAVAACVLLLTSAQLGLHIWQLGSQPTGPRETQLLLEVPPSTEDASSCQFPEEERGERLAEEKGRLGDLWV

human GITR-Fc = target: T3, human GITR-Fc (human, UniProt Q9Y5U5 26-162); experiment: BLI Octet RED384, ABP on AHQ sensor, 100 nM antigen, single concentration;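 note: association and dissociation each tracked over 180 s, with dissociation run in antigen-free buffer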
T3 construct: also called recombinant hGITR; wild type human GITR-Fc
T3 sequence: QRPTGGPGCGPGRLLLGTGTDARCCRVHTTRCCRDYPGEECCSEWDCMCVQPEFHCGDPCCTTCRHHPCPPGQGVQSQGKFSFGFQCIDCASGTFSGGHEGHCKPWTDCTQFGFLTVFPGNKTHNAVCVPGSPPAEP
Protocol: (§1) The sensors were quenched by dipping into an unrelated human IgG1 antibody to prevent non-specific binding of GITR-Fc antigens to the sensor. The sensors were equilibrated in assay buffer for 30 minutes. Baseline was established by dipping the sensors into assay buffer for 60 seconds. Association was monitored for 180 seconds in 100 nM of recombinant antigens, and dissociation was followed for 180 seconds in buffer alone. KD was determined using the kinetic function of the FORTEBIO® Analysis Software using a 1:1 binding model.

[3] = target: T1, human GITR expressed on cells; experiment: cell-based or functional assay; remark: listed apart in the source
[4] = target: T2, cynomolgus monkey GITR expressed on …; experiment: cell-based or functional assay
[5] = target: T1, human GITR expressed on cells; experiment: cell-based or functional assay; remark: listed apart in the source
[6] = target: T2, cynomolgus monkey GITR expressed on …; experiment: cell-based or functional assay
[7] = target: T1, human GITR expressed on cells; experiment: cell-based or functional assay; remark: listed apart in the source
[8] = target: T1, human GITR expressed on cells; experiment: cell-based or functional assay; remark: listed apart in the source
[9] = target: T2, cynomolgus monkey GITR expressed on …; experiment: cell-based or functional assay
[10] = target: T1, human GITR expressed on cells; experiment: cell-based or functional assay; remark: listed apart in the source
cyno GITR-Fc = target: T4, cyno GITR-Fc (cynomolgus monkey); experiment: BLI Octet RED384, ABP on AHQ sensor, 100 nM antigen, single concentration;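 note: association and dissociation each tracked over 180 s, with dissociation run in antigen-free buffer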
T4 construct: also called cGITR; cynomolgus GITR
T4 chain: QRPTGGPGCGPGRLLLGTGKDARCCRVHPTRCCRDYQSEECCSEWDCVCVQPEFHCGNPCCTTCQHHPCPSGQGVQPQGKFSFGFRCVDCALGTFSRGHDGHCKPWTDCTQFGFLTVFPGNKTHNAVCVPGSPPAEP
Protocol: as §1

EC50 in human HT1080 (IL-8 induction), n = 2 [1]: 10.5 nM
EC50 in cynomolgus HT1080 (IL-8 induction), n = 1 [2]: 15.1 nM
Kd (human GITR-Fc): 112 nM
B1: ABP45 (antibody, human IgG1, kappa, N297A, V domains shown)
VH: QVQLVQSGAEVKKPGSSVKVSCKASGGTFSRGAISWVRQAPGQGLEWMGGIIPIEGTAYYAQKFQGRVTITADESTSTAYMELSSLRSEDTAVYYCARQSDYGLPRGMDVWGQGTTVTVSS
VL: DIQLTQSPSSVSASVGDRVTITCRASQGISSWLAWYQQKPGKAPKLLIYGASSLQSGVPSRFSGSGSGTDFTLTISSLQPEDFATYYCQQASLFPPTFGGGTKVEIKR
notes: IgG1 N297A, H1H2-optimized, non-TM

Average EC50 in human HT1080 (IL-8 induction) [3]: 0.12 nM
Average EC50 in cynomolgus HT1080 (IL-8 induction) [4]: 0.076 nM
Average EC50 in human HT1080 (IL-8 induction) [5]: 0.43 nM
Average EC50 in cynomolgus HT1080 (IL-8 induction) [6]: 0.17 nM
Average EC50 in human HT1080 (IL-8 induction) [7]: 0.37 nM
EC50 in human HT1080 (IL-8 induction) [8]: 0.4 nM
EC50 in cynomolgus HT1080 (IL-8 induction) [9]: 0.2 nM
EC50, Jurkat cells expressing human GITR (run with ABP 1) [10]: 0.9 nM
EC50, Jurkat cells expressing human GITR (run with ABP 2) [10]: 0.91 nM
EC50, Jurkat cells expressing human GITR (run with ABP 3) [10]: 0.85 nM
EC50, Jurkat cells expressing human GITR (run with ABP 4) [10]: 1.13 nM
EC50, Jurkat cells expressing human GITR (run with ABP 5) [10]: 1.01 nM
EC50, Jurkat cells expressing human GITR (run with ABP 6) [10]: 0.9 nM
EC50, Jurkat cells expressing human GITR (run with ABP 7) [10]: 0.81 nM
EC50, Jurkat cells expressing human GITR (run with ABP 8) [10]: 0.89 nM
B2: trimeric human GITR ligand (ligand, UniProt Q9UNG2 50-177, looked up)
chain: QLETAKEPCMAKFGPLPSKWQMASSEPPCVNKVSDWKLEILQNGLYLIYGQVAPNANYNDVAPFEVRLYKNKDMIQTLTNKSKIQNVGGTYELHVGDTIDLIFNSEHQVLKNNTYWGIILLANPQFIS

EC50 in human HT1080 (IL-8 induction), n = 2 [1]: 0.8 nM
Kd (human GITR-Fc): 14.8 nM
binding result (cyno GITR-Fc): no binding (tested: 100 nM)
B3: ABP48 (antibody, human IgG1, kappa, N297A, V domains shown)
VH: QVQLQESGPGLVKPSETLSLTCAVSGYSISSEYMWGWIRQPPGKGLEWIGLIYHSGKTYYNPSLKSRVTISVDTSKNQFSLKLSSVTAADTAVYYCARDSGRGYGDYGGHHAFDIWGQGTMVTVSS
VL: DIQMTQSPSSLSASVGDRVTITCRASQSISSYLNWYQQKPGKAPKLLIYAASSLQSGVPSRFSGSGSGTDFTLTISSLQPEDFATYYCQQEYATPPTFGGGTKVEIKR
notes: as for B1

Average EC50 in human HT1080 (IL-8 induction) [5]: 0.44 nM
Average EC50 in cynomolgus HT1080 (IL-8 induction) [6]: 2 nM
Kd (human GITR-Fc): 2.3 nM
Kd (cyno GITR-Fc): 6.9 nM
B4: ABP41 (antibody, human IgG1, kappa, N297A, V domains shown)
VH: B3 VH with D99E, S100A, G101D
VL: DIQMTQSPSSLSASVGDRVTITCGASQSISTYLNWYQQKPGKAPKLLIYSASSLESGVPSRFSGSGSGTDFTLTISSLQPEDFATYYCQQEYNTPPSFGGGTKVEIKR
notes: IgG1 N297A, bivalent; also called non-TM ABP corresponding to ABP8

EC50 in human HT1080 (IL-8 induction), n = 2 [1]: 4.2 nM
EC50 in cynomolgus HT1080 (IL-8 induction), n = 1 [2]: 28 nM
Kd (human GITR-Fc): 46.5 nM
B5: ABP44 (antibody, human IgG1, kappa, N297A, V domains shown)
VH: QVQLVQSGAEVKKPGSSVKVSCKASGGTFSSYYISWVRQAPGQGLEWMGGIIPVPGTANYAQKFQGRVTITADESTSTAYMELSSLRSEDTAVYYCARAGGGYARGDHYYGMDVWGQGTTVTVSS
VL: not shown
notes: as for B1

EC50 in human HT1080 (IL-8 induction), n = 2 [1]: 2.7 nM
EC50 in cynomolgus HT1080 (IL-8 induction), n = 1 [2]: 65.8 nM
Kd (human GITR-Fc): 63.5 nM
binding result (cyno GITR-Fc): no binding (tested: 100 nM)
B6: ABP49 (antibody, human IgG1, kappa, N297A, V domains shown)
VH: QVQLQESGPGLVKPSQTLSLTCTVSGGSISSGGAVWSWIRQHPGKGLEWIGGIAYSGSTYYNPSLKSRVTISVDTSKNQFSLKLSSVTAADTAVYYCARDSVRGYGDYGGHHAFDIWGQGTMVTVSS
VL: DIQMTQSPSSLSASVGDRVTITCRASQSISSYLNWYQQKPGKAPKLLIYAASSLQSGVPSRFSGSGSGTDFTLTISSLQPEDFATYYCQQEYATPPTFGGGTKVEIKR
notes: as for B1

EC50 in human HT1080 (IL-8 induction), n = 2 [1]: 17.8 nM
Kd (human GITR-Fc): 11.5 nM
binding result (cyno GITR-Fc): no binding (tested: 100 nM)
B7: ABP42 (antibody, human IgG1, kappa, N297A, V domains shown)
VH: QLQLQESGPGLVKPSETLSLTCTVSGGSISSSSYAWGWIRQPPGKGLEWIGSIYYSGSTYYNPSLKSRVTISVDTSKNQFSLKLSSVTAADTAVYYCARDSGRGYGDYGGHHAFDIWGQGTMVTVSS
VL: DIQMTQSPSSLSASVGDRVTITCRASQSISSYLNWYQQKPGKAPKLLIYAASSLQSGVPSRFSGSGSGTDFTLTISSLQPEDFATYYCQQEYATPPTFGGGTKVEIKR
notes: IgG1 N297A, non-optimized, non-TM

EC50 in human HT1080 (IL-8 induction), n = 2 [1]: 1.2 nM
EC50 in cynomolgus HT1080 (IL-8 induction), n = 1 [2]: 6.9 nM
Kd (human GITR-Fc): 59.8 nM
Kd (cyno GITR-Fc): 111 nM
B8: ABP46 (antibody, human IgG1, kappa, N297A, V domains shown)
VH: QVQLVQSGAEVKKPGSSVKVSCKASGGTFSSYAISWVRQAPGQGLEWMGGIIPISGFANYAQKFQGRVTITADESTSTAYMELSSLRSEDTAVYYCAREGGHYYSGWPYWGQGTLVTVSS
VL: EIVLTQSPATLSLSPGERATLSCRASQSVSSYLAWYQQKPGQAPRLLIYDASNRATGIPARFSGSGSGTDFTLTISSLEPEDFAVYYCQQRLVFPPTFGGGTKVEIKR
notes: as for B1

EC50 in human HT1080 (IL-8 induction), n = 2 [1]: 4.1 nM
EC50 in cynomolgus HT1080 (IL-8 induction), n = 1 [2]: 11.8 nM
Kd (human GITR-Fc): 44.3 nM
Kd (cyno GITR-Fc): 88.1 nM
B9: ABP47 (antibody, human IgG1, kappa, N297A, V domains shown)
VH: QVQLVQSGAEVKKPGSSVKVSCKASGGTFVRYAISWVRQAPGQGLEWMGGIIPIFGEAQYAQKFQGRVTITADESTSTAYMELSSLRSEDTAVYYCAREGYYYGALPYWGQGTLVTVSS
VL: B8 VL with R91H, L92S
notes: as for B1

Average EC50 in human HT1080 (IL-8 induction) [7]: 0.63 nM
Kd (human GITR-Fc): 4.4 nM
Kd (cyno GITR-Fc): 5.2 nM
B10: ABP20 (antibody, human IgG4 S228P, kappa)
heavy: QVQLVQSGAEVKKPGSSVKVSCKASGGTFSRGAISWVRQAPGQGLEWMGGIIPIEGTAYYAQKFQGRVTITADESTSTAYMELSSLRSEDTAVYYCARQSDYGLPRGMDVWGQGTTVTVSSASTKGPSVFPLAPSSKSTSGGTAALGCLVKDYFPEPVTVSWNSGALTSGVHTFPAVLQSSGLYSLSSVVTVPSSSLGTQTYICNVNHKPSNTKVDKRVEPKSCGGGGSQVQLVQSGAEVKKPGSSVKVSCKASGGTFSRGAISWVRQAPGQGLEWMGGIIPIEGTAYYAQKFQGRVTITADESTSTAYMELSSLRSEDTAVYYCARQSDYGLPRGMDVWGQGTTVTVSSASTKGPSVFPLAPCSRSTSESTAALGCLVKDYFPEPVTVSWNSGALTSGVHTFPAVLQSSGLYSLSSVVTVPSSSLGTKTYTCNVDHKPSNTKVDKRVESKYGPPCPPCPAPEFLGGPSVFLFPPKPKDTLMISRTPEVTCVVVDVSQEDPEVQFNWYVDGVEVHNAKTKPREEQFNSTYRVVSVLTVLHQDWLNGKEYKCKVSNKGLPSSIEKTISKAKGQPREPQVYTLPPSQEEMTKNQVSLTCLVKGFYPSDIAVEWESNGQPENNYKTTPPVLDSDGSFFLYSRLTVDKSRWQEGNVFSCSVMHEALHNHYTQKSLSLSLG
light: DIQLTQSPSSVSASVGDRVTITCRASQGISSWLAWYQQKPGKAPKLLIYGASSLQSGVPSRFSGSGSGTDFTLTISSLQPEDFATYYCQQASLFPPTFGGGTKVEIKRTVAAPSVFIFPPSDEQLKSGTASVVCLLNNFYPREAKVQWKVDNALQSGNSQESVTEQDSKDSTYSLSSTLTLSKADYEKHKVYACEVTHQGLSSPVTKSFNRGEC
notes: TM format, N-terminal Fab: VH + IgG1 CH1 + GGGGS + VH + IgG4 S228P

Average EC50 in human HT1080 (IL-8 induction) [7]: 0.63 nM
Kd (human GITR-Fc): 5.1 nM
Kd (cyno GITR-Fc): 5.1 nM
B11: ABP26 (antibody, human IgG4 S228P, kappa)
heavy: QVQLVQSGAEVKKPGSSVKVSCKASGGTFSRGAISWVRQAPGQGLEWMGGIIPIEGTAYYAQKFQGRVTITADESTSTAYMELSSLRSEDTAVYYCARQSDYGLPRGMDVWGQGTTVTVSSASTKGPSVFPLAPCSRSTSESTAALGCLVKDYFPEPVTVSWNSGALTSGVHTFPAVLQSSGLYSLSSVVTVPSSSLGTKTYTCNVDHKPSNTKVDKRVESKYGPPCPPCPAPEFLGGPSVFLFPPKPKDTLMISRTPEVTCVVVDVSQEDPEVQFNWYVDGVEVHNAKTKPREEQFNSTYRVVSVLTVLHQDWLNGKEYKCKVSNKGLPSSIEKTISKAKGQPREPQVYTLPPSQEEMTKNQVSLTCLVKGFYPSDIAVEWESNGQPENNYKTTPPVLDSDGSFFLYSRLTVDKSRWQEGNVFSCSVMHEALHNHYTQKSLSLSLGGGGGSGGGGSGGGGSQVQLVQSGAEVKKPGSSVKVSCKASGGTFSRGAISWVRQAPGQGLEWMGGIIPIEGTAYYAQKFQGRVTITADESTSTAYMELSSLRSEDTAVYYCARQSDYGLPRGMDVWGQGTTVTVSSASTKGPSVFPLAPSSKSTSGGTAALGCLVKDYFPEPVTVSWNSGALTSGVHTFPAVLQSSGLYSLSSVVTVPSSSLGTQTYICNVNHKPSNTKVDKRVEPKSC
light: B10 light
